According to patent US20250066503A1, “CELL INJURY INDUCING THERAPEUTIC DRUG FOR USE IN CANCER THERAPY” (CHUGAI SEIYAKU KABUSHIKI KAISHA, priority 2016, published 2025):

Biological target: T1, soluble human CD3 epsilon chain (human, UniProt P07766 23-126)
T1 construct: also called CD3ε
Test: SPR

T1 sequence (P07766 23-126 limits assumed): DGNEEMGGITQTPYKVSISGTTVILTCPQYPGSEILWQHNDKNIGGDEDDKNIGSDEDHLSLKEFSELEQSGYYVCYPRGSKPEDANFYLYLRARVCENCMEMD

Binder	Kd
TR01H056-E22Hh/none-Hi-Kn010G3/L0000-k0 (antibody, V domains shown, one-arm) VH: QVQLVESGGGLVQPGRSLRLSCAASGFTFSNAWMHWVRQAPGKGLEWVAQIKDKSQNYATYYAESVKGRFTISRDDSKNSLYLQMNSLKTEDTAVYYCRYVHYSASYGVDIWGQGTTVTVSS VL: DIVMTQSPLSLPVTPGEPASISCRSSQSLVHSNRNTYLHWYQQKPGQAPRLLIYKVSNRFSGVPDRFSGSGSGTDFTLKISRVEAEDVGVYYCGQGTQVPYTFGQGTKLEIKR	73.2 nM
TR01H061-E22Hh/none-Hi-Kn010G3/L0000-k0 (antibody, V domains shown, one-arm) VH: QVQLVESGGGLVQPGRSLRLSCAASGFTFSNAWMHWVRQAPGKGLEWVAQIKDKSQNYATYYAESVKGRFTISRADSKNSIYLQMNSLKTEDTAVYYCRYVHYAASYGVDIWGQGTTVTVSS VL: DIVMTQSPLSLPVTPGEPASISCRSSQSLVHSNRNTYLHWYQQKPGQAPRLLIYKVSNRFSGVPDRFSGSGSGTDFTLKISRVEAEDVGVYYCGQGTQVPYTFGQGTKLEIKR	17.1 nM
TR01H067-E22Hh/none-Hi-Kn010G3/L0000-k0 (antibody, V domains shown, one-arm) VH: QVQLVESGGGLVQPGRSLRLSCAASGFTFSNAWMHWVRQAPGKGLEWVAQIKDKSQNYATYYAESVKGRFTISRDDSKNSLYLQMNSLKTEDTAVYYCRYVHYAASYGVDAWGQGTTVTVSS VL: DIVMTQSPLSLPVTPGEPASISCRSSQSLVHSNRNTYLHWYQQKPGQAPRLLIYKVSNRFSGVPDRFSGSGSGTDFTLKISRVEAEDVGVYYCGQGTQVPYTFGQGTKLEIKR	71.5 nM
TR01H061-E22Hh/none-Hi-Kn010G3/L0222-k0 (antibody, V domains shown, one-arm) VH: QVQLVESGGGLVQPGRSLRLSCAASGFTFSNAWMHWVRQAPGKGLEWVAQIKDKSQNYATYYAESVKGRFTISRADSKNSIYLQMNSLKTEDTAVYYCRYVHYAASYGVDIWGQGTTVTVSS VL: DIVMTQSPLSLPVTPGEPASISCRSSQSPVHSNRNTYIQWYQQKPGQAPRLLIYKVSNRFSGVPDRFSGSGSGTDFTLKISRVEAEDVGVYYCYQGTQVPYTFGQGTKLEIKR	18.8 nM
TR01H067-E22Hh/none-Hi-Kn010G3/L0201-k0 (antibody, V domains shown, one-arm) VH: QVQLVESGGGLVQPGRSLRLSCAASGFTFSNAWMHWVRQAPGKGLEWVAQIKDKSQNYATYYAESVKGRFTISRDDSKNSLYLQMNSLKTEDTAVYYCRYVHYAASYGVDAWGQGTTVTVSS VL: DIVMTQSPLSLPVTPGEPASISCRSSQPPVHSNRNTYLHWYQQKPGQAPRLLIYKVSNRFSGVPDRFSGSGSGTDFTLKISRVEAEDVGVYYCGQGTQVPYTFGQGTKLEIKR	59.3 nM
TR01H058-E22Hh/none-Hi-Kn010G3/L0000-k0 (antibody, V domains shown, one-arm) VH: QVQLVESGGGLVQPGRSLRLSCAASGFTFSNAWMHWVRQAPGKGLEWVAQIKDKSQNYATYYAESVKGRFTISRDDSKNSLYLQMNSLKTEDTAVYYCRYVHYSASYGVDYWGQGTTVTVSS VL: DIVMTQSPLSLPVTPGEPASISCRSSQSLVHSNRNTYLHWYQQKPGQAPRLLIYKVSNRFSGVPDRFSGSGSGTDFTLKISRVEAEDVGVYYCGQGTQVPYTFGQGTKLEIKR	115 nM
TR01H067-E22Hh/none-Hi-Kn010G3/L0011-k0 (antibody, V domains shown, one-arm) VH: QVQLVESGGGLVQPGRSLRLSCAASGFTFSNAWMHWVRQAPGKGLEWVAQIKDKSQNYATYYAESVKGRFTISRDDSKNSLYLQMNSLKTEDTAVYYCRYVHYAASYGVDAWGQGTTVTVSS VL: DIVMTQSPLSLPVTPGEPASISCRSSQPLVHSNRNTYLHWYQQKPGQAPRLLIYKVSNRFSGVPDRFSGSGSGTDFTLKISRVEAEDVGVYYCGQGTQVPYTFGQGTKLEIKR	71.8 nM
TR01H065-E22Hh/none-Hi-Kn010G3/L0000-k0 (antibody, V domains shown, one-arm) VH: QVQLVESGGGLVQPGRSLRLSCAASGFTFSNAWMHWVRQAPGKGLEWVAQIKDKSQNYATYYAESVKGRFTISRDDSKNSIYLQMNSLKTEDTAVYYCRYVHYAASYGVDAWGQGTTVTVSS VL: DIVMTQSPLSLPVTPGEPASISCRSSQSLVHSNRNTYLHWYQQKPGQAPRLLIYKVSNRFSGVPDRFSGSGSGTDFTLKISRVEAEDVGVYYCGQGTQVPYTFGQGTKLEIKR	43.1 nM
TR01H064-E22Hh/none-Hi-Kn010G3/L0000-k0 (antibody, V domains shown, one-arm) VH: QVQLVESGGGLVQPGRSLRLSCSASGFTFSNAWMHWVRQAPGKGLEWVAQIKDKSQNYATYYAESVKGRFTISRADSKNSIYLQMNSLKTEDTAVYYCRYVHYAASYGVDAWGQGTTVTVSS VL: DIVMTQSPLSLPVTPGEPASISCRSSQSLVHSNRNTYLHWYQQKPGQAPRLLIYKVSNRFSGVPDRFSGSGSGTDFTLKISRVEAEDVGVYYCGQGTQVPYTFGQGTKLEIKR	30.7 nM
TR01H057-E22Hh/none-Hi-Kn010G3/L0000-k0 (antibody, V domains shown, one-arm) VH: QVQLVESGGGLVQPGRSLRLSCAASGFTFSNAWMHWVRQAPGKGLEWVAQIKDKSQNYATYYAESVKGRFTISRDDSKNSLYLQMNSLKTEDTAVYYCRYVHYSASYGVDAWGQGTTVTVSS VL: DIVMTQSPLSLPVTPGEPASISCRSSQSLVHSNRNTYLHWYQQKPGQAPRLLIYKVSNRFSGVPDRFSGSGSGTDFTLKISRVEAEDVGVYYCGQGTQVPYTFGQGTKLEIKR	112 nM
TR01H066-E22Hh/none-Hi-Kn010G3/L0000-k0 (antibody, V domains shown, one-arm) VH: QVQLVESGGGLVQPGRSLRLSCAASGFTFSNAWMHWVRQAPGKGLEWVAQIKDKSQNYATYYAESVKGRFTISRADSKNSLYLQMNSLKTEDTAVYYCRYVHYAASYGVDAWGQGTTVTVSS VL: DIVMTQSPLSLPVTPGEPASISCRSSQSLVHSNRNTYLHWYQQKPGQAPRLLIYKVSNRFSGVPDRFSGSGSGTDFTLKISRVEAEDVGVYYCGQGTQVPYTFGQGTKLEIKR	60.2 nM
TR01H063-E22Hh/none-Hi-Kn010G3/L0000-k0 (antibody, V domains shown, one-arm) VH: QVQLVESGGGVVQPGGSLRLSCAASGFTFSNAWMHWVRQAPGKGLEWVAQIKDKSQNYATYYAESVKGRFTISRADSKNSIYLQMNSLKTEDTAVYYCRYVHYAASYGVDAWGQGTTVTVSS VL: DIVMTQSPLSLPVTPGEPASISCRSSQSLVHSNRNTYLHWYQQKPGQAPRLLIYKVSNRFSGVPDRFSGSGSGTDFTLKISRVEAEDVGVYYCGQGTQVPYTFGQGTKLEIKR	43.5 nM

Next, values leading:

Kd	Binder
8.85 nM	TR01H071-E22Hh/none-Hi-Kn010G3/L0000-k0 (antibody, V domains shown, one-arm) VH: QVQLVESGGGLVQPGRSLRLSCAASGFTFSNAWMHWVRQAPGKGLEWVAQIKDKSNNYATYYAESVKGRFTISRADSKNSIYLQMNSLKTEDTAVYYCRYVHYAASYGVDIWGQGTTVTVSS VL: DIVMTQSPLSLPVTPGEPASISCRSSQSLVHSNRNTYLHWYQQKPGQAPRLLIYKVSNRFSGVPDRFSGSGSGTDFTLKISRVEAEDVGVYYCGQGTQVPYTFGQGTKLEIKR
5.88 nM	TR01H067-E22Hh/none-Hi-Kn010G3/L0212-k0 (antibody, V domains shown, one-arm) VH: QVQLVESGGGLVQPGRSLRLSCAASGFTFSNAWMHWVRQAPGKGLEWVAQIKDKSQNYATYYAESVKGRFTISRDDSKNSLYLQMNSLKTEDTAVYYCRYVHYAASYGVDAWGQGTTVTVSS VL: DIVMTQSPLSLPVTPGEPASISCRPSQSPVHSNRNTYLHWYQQKPGQAPRLLIYKVSNRFSGVPDRFSGSGSGTDFTLKISRVEAEDVGVYYCYQGTQVPYTFGQGTKLEIKR
76.3 nM	TR01H067-E22Hh/none-Hi-Kn010G3/L0222-k0 (antibody, V domains shown, one-arm) VH: QVQLVESGGGLVQPGRSLRLSCAASGFTFSNAWMHWVRQAPGKGLEWVAQIKDKSQNYATYYAESVKGRFTISRDDSKNSLYLQMNSLKTEDTAVYYCRYVHYAASYGVDAWGQGTTVTVSS VL: DIVMTQSPLSLPVTPGEPASISCRSSQSPVHSNRNTYIQWYQQKPGQAPRLLIYKVSNRFSGVPDRFSGSGSGTDFTLKISRVEAEDVGVYYCYQGTQVPYTFGQGTKLEIKR
10.4 nM	TR01H071-E22Hh/none-Hi-Kn010G3/L0222-k0 (antibody, V domains shown, one-arm) VH: QVQLVESGGGLVQPGRSLRLSCAASGFTFSNAWMHWVRQAPGKGLEWVAQIKDKSNNYATYYAESVKGRFTISRADSKNSIYLQMNSLKTEDTAVYYCRYVHYAASYGVDIWGQGTTVTVSS VL: DIVMTQSPLSLPVTPGEPASISCRSSQSPVHSNRNTYIQWYQQKPGQAPRLLIYKVSNRFSGVPDRFSGSGSGTDFTLKISRVEAEDVGVYYCYQGTQVPYTFGQGTKLEIKR
71.1 nM	TR01H069-E22Hh/none-Hi-Kn010G3/L0000-k0 (antibody, V domains shown, one-arm) VH: QVQLVESGGGVVQPGGSLRLSCAASGFTFSNAWMHWVRQAPGKGLEWVAQIKDKSQNYATYYAESVKGRFTISRDDSKNSLYLQMNSLKTEDTAVYYCRYVHYAASYGVDIWGQGTTVTVSS VL: DIVMTQSPLSLPVTPGEPASISCRSSQSLVHSNRNTYLHWYQQKPGQAPRLLIYKVSNRFSGVPDRFSGSGSGTDFTLKISRVEAEDVGVYYCGQGTQVPYTFGQGTKLEIKR
59.7 nM	TR01H073-E22Hh/none-Hi-Kn010G3/L0000-k0 (antibody, V domains shown, one-arm) VH: QVQLVESGGGLVQPGRSLRLSCAASGFTFSNAWMHWVRQAPGKGLEWVAQIKDKSQNYATYYAESVKGRFTISRDDSKNSLYLQMNSLKTEDTAVYYCRYVHYAASYGVDIWGQGTTVTVSS VL: DIVMTQSPLSLPVTPGEPASISCRSSQSLVHSNRNTYLHWYQQKPGQAPRLLIYKVSNRFSGVPDRFSGSGSGTDFTLKISRVEAEDVGVYYCGQGTQVPYTFGQGTKLEIKR
47.9 nM	TR01H067-E22Hh/none-Hi-Kn010G3/L0203-k0 (antibody, V domains shown, one-arm) VH: QVQLVESGGGLVQPGRSLRLSCAASGFTFSNAWMHWVRQAPGKGLEWVAQIKDKSQNYATYYAESVKGRFTISRDDSKNSLYLQMNSLKTEDTAVYYCRYVHYAASYGVDAWGQGTTVTVSS VL: DIVMTQSPLSLPVTPGEPASISCRSSQSPVHSNRNTYIHWYQQKPGQAPRLLIYKVSNRFSGVPDRFSGSGSGTDFTLKISRVEAEDVGVYYCGQGTQVPYTFGQGTKLEIKR
101 nM	TR01H068-E22Hh/none-Hi-Kn010G3/L0000-k0 (antibody, V domains shown, one-arm) VH: QVQLVESGGGVVQPGGSLRLSCAASGFTFSNAWMHWVRQAPGKGLEWVAQIKDKSQNYATYYAESVKGRFTISRDDSKNSLYLQMNSLKTEDTAVYYCRYVHYAASYGVDAWGQGTTVTVSS VL: DIVMTQSPLSLPVTPGEPASISCRSSQSLVHSNRNTYLHWYQQKPGQAPRLLIYKVSNRFSGVPDRFSGSGSGTDFTLKISRVEAEDVGVYYCGQGTQVPYTFGQGTKLEIKR
20.3 nM	TR01H072-E22Hh/none-Hi-Kn010G3/L0000-k0 (antibody, V domains shown, one-arm) VH: QVQLVESGGGLVQPGRSLRLSCAASGFTFSNAWMHWVRQAPGKGLEWVAQIKDKSQNYATYYAESVKGRFTISRADSKNSIYLQMNSLKTEDTAVYYCRYVHYAASYGVDIWGQGTTVTVSS VL: DIVMTQSPLSLPVTPGEPASISCRSSQSLVHSNRNTYLHWYQQKPGQAPRLLIYKVSNRFSGVPDRFSGSGSGTDFTLKISRVEAEDVGVYYCGQGTQVPYTFGQGTKLEIKR
120 nM	TR01H070-E22Hh/none-Hi-Kn010G3/L0000-k0 (antibody, V domains shown, one-arm) VH: QVQLVESGGGVVQPGGSLRLSCAASGFTFSNAWMHWVRQAPGKGLEWVAQIKDKSQNYATYYAESVKGRFTISRDDSKNSLYLQMNSLKTEDTAVYYCRYVHYAASYGVDYWGQGTTVTVSS VL: DIVMTQSPLSLPVTPGEPASISCRSSQSLVHSNRNTYLHWYQQKPGQAPRLLIYKVSNRFSGVPDRFSGSGSGTDFTLKISRVEAEDVGVYYCGQGTQVPYTFGQGTKLEIKR
